The assay deals with RSA-2 (C. elegans (endogenous in embryos)) (UniProt G5EFV3). Nature of the assay: co-IP.

The source of these data is PMC4230587.

UniProt G5EFV3, sequence (G5EFV3 whole entry): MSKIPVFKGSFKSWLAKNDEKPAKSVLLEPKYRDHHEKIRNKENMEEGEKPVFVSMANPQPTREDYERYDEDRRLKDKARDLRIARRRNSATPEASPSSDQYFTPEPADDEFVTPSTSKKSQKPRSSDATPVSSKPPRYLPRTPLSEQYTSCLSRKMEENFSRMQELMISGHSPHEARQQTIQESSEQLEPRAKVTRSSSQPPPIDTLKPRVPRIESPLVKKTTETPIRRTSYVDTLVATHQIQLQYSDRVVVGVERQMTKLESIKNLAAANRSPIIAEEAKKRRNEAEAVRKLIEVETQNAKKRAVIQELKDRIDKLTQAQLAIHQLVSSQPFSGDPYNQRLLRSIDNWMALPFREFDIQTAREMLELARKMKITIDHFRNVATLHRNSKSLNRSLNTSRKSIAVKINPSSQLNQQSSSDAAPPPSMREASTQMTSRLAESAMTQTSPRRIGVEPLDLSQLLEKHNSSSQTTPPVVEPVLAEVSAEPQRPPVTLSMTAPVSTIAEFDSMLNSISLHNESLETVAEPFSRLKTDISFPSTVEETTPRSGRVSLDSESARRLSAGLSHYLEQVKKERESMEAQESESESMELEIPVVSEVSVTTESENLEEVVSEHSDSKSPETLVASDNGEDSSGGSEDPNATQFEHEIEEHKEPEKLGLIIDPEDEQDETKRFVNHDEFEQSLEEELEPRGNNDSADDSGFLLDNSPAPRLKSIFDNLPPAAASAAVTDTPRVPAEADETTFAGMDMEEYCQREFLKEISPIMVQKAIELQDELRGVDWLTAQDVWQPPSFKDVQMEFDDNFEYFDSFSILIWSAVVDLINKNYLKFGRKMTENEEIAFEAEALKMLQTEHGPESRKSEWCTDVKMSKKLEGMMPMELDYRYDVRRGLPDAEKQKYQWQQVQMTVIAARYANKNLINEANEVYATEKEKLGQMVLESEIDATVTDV

As to “SPD-5 (from UniProt P91349 1-1198) (natural protein)”, the percent of total protein co-immunoprecipitated turned out to be 20%.
